Values quoted from earlier work in PMC5533512.

Molecular target: CD40 (Homo sapiens) (UniProt P25942)
UniProt P25942, sequence (P25942 21-193): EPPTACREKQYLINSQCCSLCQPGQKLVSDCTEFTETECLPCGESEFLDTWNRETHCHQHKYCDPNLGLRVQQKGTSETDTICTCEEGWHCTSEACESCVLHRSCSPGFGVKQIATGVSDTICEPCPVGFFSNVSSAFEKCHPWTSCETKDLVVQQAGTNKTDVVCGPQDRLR

In the case of dacetuzumab, the Kd is given as 1 nM.
